Results: patent US20090166224A1 (published 2009)

How the values were obtained:
Experiment in all cases: human serum on Con A/WGA/Jacalin column, lectin-specific displacer fraction, LC-MS/MS; grade = SEQUEST rank group (+ = ranks 1-5, ++++ = 16-20)
APOLIPOPROTEIN C-III = target: T1, APOLIPOPROTEIN C-III (human, UniProt P02656 21-99)
T1 construct: from human serum; also called APC3

[1] = target: T2, IG GAMMA-3 CHAIN C REGION (human, UniProt P01860-1 1-377)
T2 construct: domain: C region; Polyclonal serum IgG3, identified through its constant region; variable regions and light chains not defined; also called GC3
T2 sequence (P01860 other isoform, or with tags, fused parts or gaps limits assumed): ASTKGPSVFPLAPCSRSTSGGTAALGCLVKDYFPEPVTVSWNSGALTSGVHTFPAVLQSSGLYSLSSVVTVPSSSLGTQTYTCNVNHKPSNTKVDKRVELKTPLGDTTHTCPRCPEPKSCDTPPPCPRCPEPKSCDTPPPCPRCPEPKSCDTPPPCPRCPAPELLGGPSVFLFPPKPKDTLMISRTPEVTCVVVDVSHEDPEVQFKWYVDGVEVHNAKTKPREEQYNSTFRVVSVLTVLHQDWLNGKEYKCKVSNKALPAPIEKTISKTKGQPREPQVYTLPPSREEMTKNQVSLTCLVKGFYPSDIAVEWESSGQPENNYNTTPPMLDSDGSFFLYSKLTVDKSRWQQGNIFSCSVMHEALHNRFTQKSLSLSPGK

[2] = target: T3, HAPTOGLOBIN-RELATED PROTEIN (human, UniProt P00739 1-348, limits assumed)
T3 construct: from human serum; also called HPTR
T3 sequence (looked up): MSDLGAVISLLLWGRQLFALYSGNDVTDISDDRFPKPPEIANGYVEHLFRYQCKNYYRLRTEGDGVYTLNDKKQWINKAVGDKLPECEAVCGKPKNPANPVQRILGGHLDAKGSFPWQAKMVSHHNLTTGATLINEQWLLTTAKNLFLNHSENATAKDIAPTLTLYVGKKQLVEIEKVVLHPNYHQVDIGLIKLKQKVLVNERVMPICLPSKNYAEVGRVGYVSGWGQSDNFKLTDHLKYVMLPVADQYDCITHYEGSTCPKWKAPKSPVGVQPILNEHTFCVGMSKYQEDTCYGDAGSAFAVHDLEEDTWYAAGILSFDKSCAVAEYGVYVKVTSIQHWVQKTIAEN

[3] = target: T4, INTER-ALPHA-TRYPSIN INHIBITOR HEAVY CHAIN H2 (human, UniProt P19823 55-702)
T4 construct: from human serum; also called ITH2
T4 sequence (looked up): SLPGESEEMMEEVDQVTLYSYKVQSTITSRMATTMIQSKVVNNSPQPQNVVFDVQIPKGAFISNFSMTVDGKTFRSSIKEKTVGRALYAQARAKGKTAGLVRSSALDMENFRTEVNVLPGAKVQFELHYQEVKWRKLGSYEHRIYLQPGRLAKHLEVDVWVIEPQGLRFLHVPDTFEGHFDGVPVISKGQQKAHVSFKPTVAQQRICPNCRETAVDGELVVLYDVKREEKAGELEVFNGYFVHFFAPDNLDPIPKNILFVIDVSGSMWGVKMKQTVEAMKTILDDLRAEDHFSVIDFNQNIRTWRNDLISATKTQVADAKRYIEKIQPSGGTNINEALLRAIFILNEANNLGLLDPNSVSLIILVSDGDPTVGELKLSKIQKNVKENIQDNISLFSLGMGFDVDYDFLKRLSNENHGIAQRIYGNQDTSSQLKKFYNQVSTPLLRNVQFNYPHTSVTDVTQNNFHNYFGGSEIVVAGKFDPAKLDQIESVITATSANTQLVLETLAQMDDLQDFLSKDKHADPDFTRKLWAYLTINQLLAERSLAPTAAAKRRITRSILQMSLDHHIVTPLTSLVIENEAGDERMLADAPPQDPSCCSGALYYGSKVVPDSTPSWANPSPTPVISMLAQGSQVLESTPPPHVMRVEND

Alpha-1-antitrypsin = target: T5, Alpha-1-antitrypsin (human, UniProt P01009 25-418)
T5 construct: also called A1AT; α1-antitrypsin
T5 sequence (P01009 25-418 limits assumed): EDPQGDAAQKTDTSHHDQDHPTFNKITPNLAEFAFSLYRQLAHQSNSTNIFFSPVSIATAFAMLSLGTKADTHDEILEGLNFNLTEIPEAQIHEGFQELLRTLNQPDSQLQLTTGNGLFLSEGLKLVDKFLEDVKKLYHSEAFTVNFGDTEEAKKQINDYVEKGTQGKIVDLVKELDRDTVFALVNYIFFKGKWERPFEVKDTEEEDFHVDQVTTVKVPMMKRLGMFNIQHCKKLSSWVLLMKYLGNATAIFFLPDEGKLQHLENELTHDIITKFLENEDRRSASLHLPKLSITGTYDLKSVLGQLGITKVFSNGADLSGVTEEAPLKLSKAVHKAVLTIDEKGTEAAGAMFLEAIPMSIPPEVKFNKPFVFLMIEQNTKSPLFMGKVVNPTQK

APOLIPOPROTEIN E = target: T6, APOLIPOPROTEIN E (human, UniProt P02649 19-317)
T6 construct: from human serum; also called APE
T6 sequence (P02649 19-317 limits assumed): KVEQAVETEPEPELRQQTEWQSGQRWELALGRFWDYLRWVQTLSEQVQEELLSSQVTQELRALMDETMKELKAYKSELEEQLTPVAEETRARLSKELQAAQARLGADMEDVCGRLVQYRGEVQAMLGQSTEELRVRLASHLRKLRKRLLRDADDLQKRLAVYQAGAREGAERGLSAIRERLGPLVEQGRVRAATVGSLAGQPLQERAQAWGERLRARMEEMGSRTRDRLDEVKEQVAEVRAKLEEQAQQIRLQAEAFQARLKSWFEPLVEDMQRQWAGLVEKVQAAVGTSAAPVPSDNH

[4] = target: T7, INTER-ALPHA-TRYPSIN INHIBITOR HEAVY CHAIN H1 (human, UniProt P19827 35-672)
T7 construct: from human serum; also called ITH1
T7 sequence (looked up): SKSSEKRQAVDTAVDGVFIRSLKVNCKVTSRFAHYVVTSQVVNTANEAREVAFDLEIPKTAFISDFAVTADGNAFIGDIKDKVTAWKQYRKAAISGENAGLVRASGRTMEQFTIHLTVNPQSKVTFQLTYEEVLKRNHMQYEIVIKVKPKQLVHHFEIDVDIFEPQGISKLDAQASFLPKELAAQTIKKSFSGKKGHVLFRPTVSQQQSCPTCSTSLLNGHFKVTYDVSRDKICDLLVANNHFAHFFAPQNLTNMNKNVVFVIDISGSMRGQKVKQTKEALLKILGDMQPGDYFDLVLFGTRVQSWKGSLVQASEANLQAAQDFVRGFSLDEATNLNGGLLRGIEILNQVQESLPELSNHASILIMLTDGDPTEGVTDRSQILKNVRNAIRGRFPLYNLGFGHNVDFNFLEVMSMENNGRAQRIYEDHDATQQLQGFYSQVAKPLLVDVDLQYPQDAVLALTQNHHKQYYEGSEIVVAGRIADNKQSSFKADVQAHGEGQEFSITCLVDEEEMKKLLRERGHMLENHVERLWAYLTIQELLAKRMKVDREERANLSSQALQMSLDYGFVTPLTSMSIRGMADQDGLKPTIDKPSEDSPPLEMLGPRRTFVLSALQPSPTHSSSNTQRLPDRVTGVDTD

T1 sequence (P02656 21-99 limits assumed): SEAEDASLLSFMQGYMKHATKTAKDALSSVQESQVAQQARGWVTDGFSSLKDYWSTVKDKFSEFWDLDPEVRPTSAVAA

B1: Jacalin lectin, agarose-bound (other)
chain 1: GKAFDDGAFTGIREINLSYNKETAIGDFQVVYDLNGSPYVGQNHKSFITGFTPVKISLDFPSEYIMEVSGYTGNVSGYVVVRSLTFKTNKKTYGPYGVTSGTPFNLPIENGLIVGFKGSIGYWLDYFSMYLSL
chain 2: NEQSGKSQTVIVGSWGAKVS
modifications: immobilized on agarose
notes: Lectin; released with galactose; Coated on the plate in the lectin ELISA
SEQUEST ranking (relative abundance in the Jacalin displacement fraction) (APOLIPOPROTEIN C-III): 6 to 10 rank
SEQUEST ranking (relative abundance in the Jacalin displacement fraction) [1]: 16 to 20 rank
SEQUEST ranking (relative abundance in the Jacalin displacement fraction) [2]: 6 to 10 rank
SEQUEST ranking (relative abundance in the Jacalin displacement fraction) [3]: 16 to 20 rank
SEQUEST ranking (relative abundance in the Jacalin displacement fraction) (Alpha-1-antitrypsin): 1 to 5 rank
SEQUEST ranking (relative abundance in the Jacalin displacement fraction) (APOLIPOPROTEIN E): 11 to 15 rank
SEQUEST ranking (relative abundance in the Jacalin displacement fraction) [4]: 6 to 10 rank
